The sequences below were run on Escherichia coli TOP10 (assay: shrunken log2 fold change of peptide-encoding DNA abundance (4.5 h post-induction vs induction); higher = less antimicrobial activity (less host growth inhibition)). Details: time post-induction: 4.5 h; library: site-saturation at positions 5, 18, 19, 20.
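Note: peptides expressed intracellularly from a pBAD plasmid library in pooled LB shake-flask culture, induced with 0.3% L-arabinose, DNA abundance read by NGS, three biological replicates, DESeq2 with apeglm shrinkage.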

Sequence	shrunken log2 fold change
RRIRCRPPRLPRPRPRPNYMPRP	-0.677
RRIRTRPPRLPRPRPRPLDTPRP	-0.566
RRIRPRPPRLPRPRPRPCKFPRP	-0.0234
RRIRARPPRLPRPRPRPHSWPRP	0.475
RRIRWRPPRLPRPRPRPFYSPRP	-0.681
RRIRARPPRLPRPRPRPTDSPRP	0.00832
RRIRRRPPRLPRPRPRPLREPRP	1.14
RRIRMRPPRLPRPRPRPWWEPRP	-0.425
RRIRWRPPRLPRPRPRPSHMPRP	-0.668
RRIRARPPRLPRPRPRPFLYPRP	-0.0961
RRIRERPPRLPRPRPRPRMDPRP	-0.495
RRIRIRPPRLPRPRPRPTMKPRP	-0.309
RRIRLRPPRLPRPRPRPWAAPRP	0.15
RRIRQRPPRLPRPRPRPHENPRP	-0.0313
RRIRRRPPRLPRPRPRPGKFPRP	0.284
RRIRPRPPRLPRPRPRPDPLPRP	-0.379
RRIRMRPPRLPRPRPRPNKSPRP	0.0117
RRIRTRPPRLPRPRPRPIKYPRP	4.24
RRIRPRPPRLPRPRPRPMIRPRP	0.339
RRIRSRPPRLPRPRPRPTQVPRP	0.839

Sequence	shrunken log2 fold change
RRIRNRPPRLPRPRPRPPCGPRP	0.317
RRIRGRPPRLPRPRPRPDMEPRP	0.864
RRIRIRPPRLPRPRPRPMSIPRP	-0.0563
RRIRDRPPRLPRPRPRPQTTPRP	0.0462
RRIRDRPPRLPRPRPRPLDCPRP	0.118
RRIRCRPPRLPRPRPRPEWKPRP	0.0169
RRIRVRPPRLPRPRPRPCEYPRP	-0.00327
RRIRGRPPRLPRPRPRPVAMPRP	1.02
RRIRRRPPRLPRPRPRPASIPRP	-0.0206
RRIRARPPRLPRPRPRPLMSPRP	0.302
RRIRVRPPRLPRPRPRPEWYPRP	-0.419
RRIRYRPPRLPRPRPRPCLHPRP	-0.633
RRIRDRPPRLPRPRPRPMKKPRP	0.0162
RRIRGRPPRLPRPRPRPDKVPRP	0.32
RRIRDRPPRLPRPRPRPDFQPRP	0.189
RRIRKRPPRLPRPRPRPIIAPRP	-0.0395
RRIRKRPPRLPRPRPRPGSCPRP	0.346
RRIRDRPPRLPRPRPRPMWIPRP	-0.306
RRIRHRPPRLPRPRPRPTVCPRP	0.196
RRIRIRPPRLPRPRPRPYAWPRP	-0.402

Sequence	shrunken log2 fold change
RRIRARPPRLPRPRPRPHGCPRP	0.128
RRIRCRPPRLPRPRPRPSTVPRP	-0.443
RRIRNRPPRLPRPRPRPYCKPRP	-0.258
RRIRTRPPRLPRPRPRPRDNPRP	-0.239
RRIRWRPPRLPRPRPRPENLPRP	0.0583
RRIRLRPPRLPRPRPRPILMPRP	0.0581
RRIRSRPPRLPRPRPRPVCDPRP	0.327
RRIRIRPPRLPRPRPRPEYCPRP	-0.125
RRIRSRPPRLPRPRPRPEQHPRP	-0.101
RRIRARPPRLPRPRPRPHRHPRP	-0.0481
RRIRKRPPRLPRPRPRPNIEPRP	0.115
RRIRGRPPRLPRPRPRPQECPRP	0.226
RRIRTRPPRLPRPRPRPSLRPRP	-0.294
RRIRFRPPRLPRPRPRPHRMPRP	-0.15
RRIRYRPPRLPRPRPRPSLAPRP	0.0395
RRIRSRPPRLPRPRPRPIDLPRP	-0.546
RRIRLRPPRLPRPRPRPPHDPRP	0.397
RRIRRRPPRLPRPRPRPKWSPRP	0.457
RRIRPRPPRLPRPRPRPTGWPRP	0.519
RRIRCRPPRLPRPRPRPPERPRP	0.576

Source: the supplement of paper PMC9112550, “Optimization of the antimicrobial peptide Bac7 by deep mutational scanning” (BMC Biology, 2022)
